Experimental data taken from patent publication US20090239794A1, “HCV F PROTEIN AND USES THEREOF” (priority 2004, published 2009).

Target: T1, HLA-A*0201 (Homo sapiens, UniProt P04439, D140Y/D185E/D98H/E176V/E277Q/G131W/G231S/I119V/I121R/I166T/I218V/L300P/L318F/N151K/N90K/P208A/P217A/Q86G/Q94H/R138H/R169H/T345S)
T1 construct: rescue cell-surface expression of CMH-I molecule HLA-A2 in the TAP peptide transporter-deficient cell line T2; endogenous in cells; host or cells: T2 cells (TAP-deficient)
Assay: T2 peptide binding assay
Type: cell-based
Settings: for dose-response of MHC class I (HLA-A2) expression at the surface of T2 cells: 30, 100, 200 μg/ml; for A2 binding / Peak fluorescence, % of the levels obtained with NS3 1406-1415 / initial screening of the overlapping peptide panel for HLA-A*0201 expression at the cell surface: T2 cells; for A2 binding: dose-dependent increase of HLA-A2 surface expression; for Peak fluorescence, % of the levels obtained with NS3 1406-1415: MHC class I staining with W6/32; for initial screening of the overlapping peptide panel for HLA-A*0201 expression at the cell surface: 200 μg/ml
Protocol: 37 overlapping peptides (15 amino acid residues with […]) derived from F protein and 5 additional 15-mer peptides corresponding to alternative N-terminal frameshift products of the core protein sequence were synthesized using Fmoc chemistry (SynPep, Dublin, Calif.) based on the sequence of HCV-1a F protein (GenBank accession n° M62321), and were resolubilized in 25% w/v dimethyl sulfoxyde (DMSO) in 1×HBSS. Peptides were diluted to 30, 100, and 200 μg/ml final concentration in DMEM supplemented with 3% w/v FBS, and were incubated with 100,000 serum-depleted (3% FBS for 24 h) T2 cells for 16 h at 37° C. in 5% CO2. T2 cells were then stained (30 min at room temperature) for MHC class I molecules using fluorescein isothiocyanate (FITC)-conjugated W6/32 monoclonal antibody (Sigma, Saint Louis, Mo.) and were analyzed on a FACSCalibur™ flow cytometer (Becton-Dickinson Immunocytometry Systems, La Jolla, Calif.) with live gating based on forward and side scatter.
Interaction of antigenic peptides with class I major histocompatibility complex (MHC) molecules is a prerequisite for their recognition by host cytotoxic T lymphocytes (CTL). The T2 binding assay was therefore performed, in which exogenously-supplied peptides are assessed for their ability to rescue cell-surface expression of CMH-I molecule HLA-A2 in the TAP peptide transporter-deficient cell line T2 [25].
Forty-two overlapping 15-mer peptides corresponding to HCV-1a F protein sequence were tested for interaction with HLA-A*0201 molecules using the T2 peptide binding assay. Specifically, thirty-seven overlapping peptides (15 amino acid residues with 11 residues overlaps) derived from F protein and 5 additional 15-mer peptides corresponding to alternative N-terminal frameshift products of the core protein sequence were synthesized using Fmoc chemistry based on the sequence of HCV-1a ARFP (GenBank accession n° M62321), and peptide binding was assessed as described in Example 1. […] Mean fluorescence intensity following class I MHC staining by the W6/32 monoclonal antibody was used as the readout. The threshold level was set using no peptide controls (hatched lines in FIGS. 4 and 5).

Sequence | dose-response of MHC class I (HLA-A2) expression at the surface of T2 cells | A2 binding | Peak fluorescence, % of the levels obtained with NS3 1406-1415 | initial screening of the overlapping peptide panel for HLA-A*0201 expression at the cell surface
AGAPQTPGV (Hepatitis C virus) [F107-115] | dose-dependent capacity to rescue A2 expression | + |  | 
ALGLAGAPQT (Hepatitis C virus) [F103-112] | unable to rescue HLA-A2 expression |  |  | 
CCRAGALDWVCARRE (Hepatitis C virus) [F37-51] | dose-dependent increase | + | 79.2% | high binders
KLVALGINAV [NS3 1406, reference compound] |  | + |  | 
PVALGLAGAPQTPGV (Hepatitis C virus) [F101-115] | dose-dependent increase | + | 83.2% | high binders
SLVEFTCCRA (Hepatitis C virus) [F31-40] | dose-dependent increase | + |  | 
VRSLVEFTCCRAGAL (Hepatitis C virus) [F29-43, 15-mer of HCV-1a F protein] | dose-dependent increase | + | 87.6% | high binders
